Measured values: article PMC5480026

Experiments:
[1] = target: T1, hIFNγ receptor hIFNGR1 (human (endogenous in WISH)) (UniProt P15260)
T1 sequence: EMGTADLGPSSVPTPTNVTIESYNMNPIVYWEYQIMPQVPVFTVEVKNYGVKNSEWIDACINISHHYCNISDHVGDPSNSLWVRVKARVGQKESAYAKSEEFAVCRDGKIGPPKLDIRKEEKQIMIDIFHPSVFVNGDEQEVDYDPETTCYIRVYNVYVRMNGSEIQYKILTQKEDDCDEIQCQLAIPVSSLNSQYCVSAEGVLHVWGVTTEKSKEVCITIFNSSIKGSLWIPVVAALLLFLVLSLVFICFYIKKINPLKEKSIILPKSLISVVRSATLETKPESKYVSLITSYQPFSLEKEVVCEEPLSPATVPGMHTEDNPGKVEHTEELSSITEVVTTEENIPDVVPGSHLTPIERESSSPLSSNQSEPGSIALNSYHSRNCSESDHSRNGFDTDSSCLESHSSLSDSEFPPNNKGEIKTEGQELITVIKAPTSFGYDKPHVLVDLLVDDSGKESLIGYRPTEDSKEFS

[2] = target: T1, hIFNγ receptor hIFNGR1 (human (endogenous in WISH)); remark: listed apart in the source

biological activity, kynurenine bioassay on WISH cells [1] [times lower] | specific biological activity after tag removal, kynurenine bioassay on WISH cells [2] [IU/mg] | Substance
100 |  | His6-FLAG-K88Q fusion protein expressed in E. coli (from UniProt P01579 24-161) (ligand)
100 |  | His6-FLAG-hIFNγ fusion protein expressed in E. coli (from UniProt P01579 24-161) (ligand)
 | 3e+07 | human interferon-gamma (hIFNγ), tag-free after enterokinase removal of the His6-FLAG tag (from UniProt P01579 24-161) (ligand)
